T1: HPV39 E7 protein, recombinant (His-TEV-E7 fusion from E. coli) (Human Papilloma Virus type 39 (HPV39), UniProt P24837 1-109, CKII phosphorylation of the consensus site serine in the antigen preparation of Example 2)
T1 construct: mature; also called VE7_HPV39; not shown: N-terminal 6x Histidine tag and TEV cleavage site of the vector
T1 sequence: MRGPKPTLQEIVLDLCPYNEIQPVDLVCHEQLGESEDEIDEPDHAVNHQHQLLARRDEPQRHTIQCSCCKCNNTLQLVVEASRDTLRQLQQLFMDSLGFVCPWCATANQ

T2: HPV51 E7 protein, recombinant (His-TEV-E7 fusion from E. coli) (Human Papilloma Virus type 51 (HPV51), UniProt P26558 1-101, CKII phosphorylation of the consensus site serines in the antigen preparation of Example 2)
T2 construct: mature; also called VE7_HPV51; not shown: N-terminal 6x Histidine tag and TEV cleavage site of the vector
T2 sequence: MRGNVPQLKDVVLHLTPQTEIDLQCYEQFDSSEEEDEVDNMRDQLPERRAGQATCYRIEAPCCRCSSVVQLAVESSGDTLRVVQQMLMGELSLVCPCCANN

T3: HPV45 E7 protein, recombinant (His-TEV-E7 fusion from E. coli) (Human Papilloma Virus type 45 (HPV45), UniProt P21736 1-106, CKII phosphorylation of the consensus site serines in the antigen preparation of Example 2; biotin on primary amines in the SPR assay)
T3 construct: mature; also called VE7_HPV45; not shown: N-terminal 6x Histidine tag and TEV cleavage site of the vector
T3 sequence: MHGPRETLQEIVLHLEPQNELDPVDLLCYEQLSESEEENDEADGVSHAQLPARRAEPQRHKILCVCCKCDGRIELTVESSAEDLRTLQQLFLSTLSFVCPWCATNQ

T4: HPV58 E7 protein, recombinant (His-TEV-E7 fusion from E. coli) (Human Papilloma Virus type 58 (HPV58), UniProt P26557 1-98, CKII phosphorylation of the consensus site serines in the antigen preparation of Example 2)
T4 construct: mature; also called VE7_HPV58; not shown: N-terminal 6x Histidine tag and TEV cleavage site of the vector
T4 sequence: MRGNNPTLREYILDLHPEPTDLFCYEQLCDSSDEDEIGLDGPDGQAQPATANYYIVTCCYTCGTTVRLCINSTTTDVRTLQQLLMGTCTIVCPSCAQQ

T5: HPV18 E7 protein, recombinant (His-TEV-E7 fusion from E. coli) (Human Papilloma Virus type 18 (HPV18), UniProt P06788 1-105, CKII phosphorylation of the consensus site serines in the antigen preparation of Example 2; biotin on primary amines in the SPR assay)
T5 construct: mature; also called VE7_HPV18; not shown: N-terminal 6x Histidine tag and TEV cleavage site of the vector
T5 sequence: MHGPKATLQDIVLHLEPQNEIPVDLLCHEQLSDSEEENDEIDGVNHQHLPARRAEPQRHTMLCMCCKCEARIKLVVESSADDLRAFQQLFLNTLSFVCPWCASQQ

T6: HPV33 E7 protein, recombinant (His-TEV-E7 fusion from E. coli) (Human Papilloma Virus type 33 (HPV33), UniProt P06429 1-97, CKII phosphorylation of the consensus site serines in the antigen preparation of Example 2; biotin on primary amines in the SPR assay)
T6 construct: mature; also called VE7_HPV33; not shown: N-terminal 6x Histidine tag and TEV cleavage site of the vector
T6 sequence: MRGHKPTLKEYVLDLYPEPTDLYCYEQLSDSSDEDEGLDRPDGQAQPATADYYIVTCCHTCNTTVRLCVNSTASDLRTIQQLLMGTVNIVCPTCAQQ

T7: HPV56 E7 protein, recombinant (His-TEV-E7 fusion from E. coli) (Human Papilloma Virus type 56 (HPV56), UniProt P36833 1-105, CKII phosphorylation of the consensus site serines in the antigen preparation of Example 2)
T7 construct: mature; also called VE7_HPV56; not shown: N-terminal 6x Histidine tag and TEV cleavage site of the vector
T7 sequence: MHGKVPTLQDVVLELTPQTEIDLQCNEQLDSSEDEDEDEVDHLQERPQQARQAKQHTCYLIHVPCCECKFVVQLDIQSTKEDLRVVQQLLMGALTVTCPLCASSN

B1: ACAB164 (antibody, V domains shown)
VH: EVQLQQSGLALVQPGASVKISCRTSGYTFTEYTLHWVKQSHGKSLEWIGGINPNNGSPKYNQKFKGKATLTVDKSSSTAYMELRSLTSEDSAVYYCARLDINSFFDYWGQGTTLTVSS
VL: DVVMTQSPLSLPVSLGDQASISCRSSQSLVHSNGNTYLQWYLQKPGQSPKLLIYKLSNRFSGVPDRFSGSGSGTDFTLKISRVEAEDLGVYSCSQTTHVPPTFGGGTKLEIKR
notes: the printed entries run on into the first residues of the constant domains; also called HPV16E7 IgG2a antibody ACAB164
B2: ACAB161 (antibody, IgG2a, V domains shown)
VH: EVMLVESGGGLVKPGGSLKLSCAASGFTFSRYTMSWVRQTPEKRLEWVATISSGGTNTNYTDSVKGRFTISRDNAKNNLYLQMSSLRSEDTALYYCTRGVRRGDGYAMDYWGQGTSVTVSS
VL: DIVLTQAAPSVPVTPGESVSISCRSTKSLLHSNGNTYLYWFLQRPGQSPQALIYRTSNLASGVPDRFSGSGSGTAFTLRISRVEAEDVGVYYCMQHLEYPLTFGAGTKLELKR
notes: the printed entries run on into the first residues of the constant domains; also called HPV16E7 IgG2a antibody ACAB161
B3: ACAB452 (antibody, IgG1, V domains shown)
VH: DVQLQESGPGLVKPSQSLSLTCTVTGYSITSDYAWNWIRQFPGNKLEWVGYITYSGSTNYNPSLKSRISITRDTSKNQFFLQFNSVTSEDTATYFCARSWFAYWGQGTLVTVSS
VL: DIVMTQTPLSLPVSLGDQASISCRSSQSLVHSNGNTYLHWFLQKPGQSPKLLIYKVSNRFSGVPDRFSGSGSGTDFTLKISRVEAEDLGVYFCLQSAHVPLTFGAGTKLELTR
notes: also called HPV45E7 IgG1 antibody ACAB452

Legend:
[1] = molecular target: T1, HPV39 E7 protein, recombinant …; experiment: ELISA and dot-blot, semiquantitative crossreactivity
Procedure: (§1) Using ELISA and dot-blot techniques semiquantitative crossreactivities of the isolated mAbs was analysed. For this various mAbs were tested against the accepted high risk species.

[2] = molecular target: T2, HPV51 E7 protein, recombinant …; experiment: as above
Procedure: as §1

[3] = molecular target: T3, HPV45 E7 protein, recombinant …; experiment: as above
Procedure: as §1

[4] = molecular target: T4, HPV58 E7 protein, recombinant …; experiment: ELISA and dot-blot, semiquantitative crossreactivity (++ strong positive)
Procedure: as §1

[5] = molecular target: T5, HPV18 E7 protein, recombinant …; experiment: ELISA and dot-blot, semiquantitative crossreactivity (+ weak interaction)
Procedure: as §1

[6] = molecular target: T6, HPV33 E7 protein, recombinant …; experiment: as above
Procedure: as §1

[7] = molecular target: T3, HPV45 E7 protein, recombinant …; experiment: SPR (BIAcore X100), biotin-E7 on streptavidin SA chip, antibody as analyte, bivalent analyte fit, 25 C
[8] = molecular target: T5, HPV18 E7 protein, recombinant …; experiment: as above
[9] = molecular target: T1, HPV39 E7 protein, recombinant …; experiment: ELISA and dot-blot, semiquantitative crossreactivity (++ strong positive)
Procedure: as §1

[10] = molecular target: T7, HPV56 E7 protein, recombinant …; experiment: as above
Procedure: as §1

[11] = molecular target: T2, HPV51 E7 protein, recombinant …; experiment: as above
Procedure: as §1

[12] = molecular target: T4, HPV58 E7 protein, recombinant …; experiment: ELISA, HPV58E7 immobilised on polystyrene plates in 3-fold dilution steps, detected with ACAB452

| Binder | binding result [1] | binding result [2] | binding result [3] | binding result [4] | binding result [5] | binding result [6] | Kd [7] [nM] | kon [7] [M⁻¹ s⁻¹] | kon [8] [M⁻¹ s⁻¹] | binding result [9] | binding result [10] | binding result [11] | binding result [12] |
| --- | --- | --- | --- | --- | --- | --- | --- | --- | --- | --- | --- | --- | --- |
| B1 | no binding | no binding | no binding | binds |  |  |  |  |  |  |  |  |  |
| B2 | no binding | no binding | no binding |  | binds |  |  |  |  |  |  |  |  |
| B3 |  |  |  |  |  | binds | 10.6 | 52100 | 94700 | binds | binds | binds | no binding (tested: 800 nM immobilised antigen (per legend)) |

From patent US20150023979A1 (VALDOSPAN, published 2015)
